According to patent US20060275211A1:

Target: Tag5-161P2F10B, purified recombinant extracellular domain (ECD) of 161P2F10B (amino acids 46-875) (human) (UniProt O14638)
Experiment: SPR, MAb captured on CM5 chip, recombinant 161P2F10B 1-100 nM injected

Binder | Kd | koff | kon
H16-1.29.1.1 (antibody, part only; not given: light chain, V domains shown, part only) VH: CRLVESGAEVKKPGASVKVSCKASGYTFTGYYMHWVRQAPGQGLEWMGWINPNSGGTNYAQKFQGRVTMTRDTSISTAYMELSRLRSDDTAVYYCARDQVDIVATRYYYYYYGMDVWGQGTTVTVSSASTKGPSVFPLAPSSKST | 26 nM | 0.00083 s⁻¹ | 32000 M⁻¹ s⁻¹
H16-1.92.1.1 (antibody, part only; not given: light chain, V domains shown, part only) VH: EVLLVESGPGLVKPSETLSLTCTVSGGSISSSSYFWGWIRQPPGKGLEWIGSIYYSGNTYYNPSLKSRVTISVDTSKNRFSLKLSSVTAADTAVYCCASATTVTTAFDIWGQGTMVTVSSASTKGPSVFPLAPSS | 9.8 nM | 0.00036 s⁻¹ | 37000 M⁻¹ s⁻¹
